# In US20020086390:
# B1: inactive PAK I holoenzyme (p60) purified from rabbit reticulocytes (protein)
# chain: SDNGELEDKPPAPPVRMSSTIFSTGGKDPLSANHSLKPLPSVPEEKKPRNKIISIFSGTEKGSKKKEKERPEISPPSDFEHTIHVGFDAVTGEFTGMPEQWARLLQTSNITKLEQKKNPQAVLDVLKFYDSNTVKQKYLSFTPPEKDGFPSGAPALNTKVSETSAVVTEEDDDDEEAAPPVIAPRPDHTKSIYTRSVIDPIPAPVGDSHVDSGAKSSDKQKKKTKMTDEEIMEKLRTIVSIGDPKKKYTRYEKIGQGASGTVFTATDVALGQEVAIKQINLQKQPKKELIINEILVMKELKNPNIVNFLDSYLVGDELFVVMEYLAGGSLTDVVTETCMDEAQIAAVCRECLQALEFLHANQVIHRDIKSDNVLLGMEGSVKLTDFGFCAQITPEQSKRSTMVGTPYWMAPEVVTRKAYGPKVDIWSLGIMAIEMVEGEPPYLNENPLRALYLIATNGTPELQNPEKLSPIFRDFLNRCLEMDVEKRGSAKELLQHPFLKLAKPLSSLTPLIMAAKEAMKSNR
# What was measured:
# [1] = molecular target: GST-RhoA preloaded with GTPγS, P61586
# Chain of GST-RhoA preloaded with GTPγS, P61586 (P61586 whole entry): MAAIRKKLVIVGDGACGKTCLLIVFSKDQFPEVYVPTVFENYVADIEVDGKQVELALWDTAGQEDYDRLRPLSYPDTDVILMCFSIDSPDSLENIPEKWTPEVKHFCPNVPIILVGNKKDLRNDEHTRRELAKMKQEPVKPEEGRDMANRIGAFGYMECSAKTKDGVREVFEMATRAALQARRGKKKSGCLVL
# [2] = molecular target: GST-Cdc42Hs preloaded with GTPγS, P60953
# Chain of GST-Cdc42Hs preloaded with GTPγS, P60953 (P60953 whole entry, looked up): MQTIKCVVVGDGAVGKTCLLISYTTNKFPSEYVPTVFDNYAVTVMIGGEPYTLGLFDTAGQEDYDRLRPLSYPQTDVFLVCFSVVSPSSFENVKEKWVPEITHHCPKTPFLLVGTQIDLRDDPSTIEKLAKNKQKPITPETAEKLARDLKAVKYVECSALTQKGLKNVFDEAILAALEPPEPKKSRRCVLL
# [3] = molecular target: GST-Cdc42Hs preloaded with GDP, P60953
# Chain of GST-Cdc42Hs preloaded with GDP, P60953 (P60953 whole entry, looked up): as above
# [4] = molecular target: GST-Rac1 preloaded with GTPγS, P63000
protein,measurement,setting,value
B1,autophosphorylation and activity (phosphorylation of H4),[1],had no stimulatory effect on either autophosphorylation or activity
same,"autophosphorylation of PAK I (autoradiography, time course)",[1],GST-RhoA had little effect
same,"autophosphorylation of PAK I (autoradiography, time course)",[2],Stimulation of autophosphorylation upon addition of GST-Cdc42Hs was observed within 5 min
same,increased autophosphorylation of PAK I,[2],0.97 mol/mol
same,stimulation of the rate of phosphorylation of H4,[2],"18,261 pmol/min/mg"
same,activity (phosphorylation of H4),[3],"2,154 pmol/min/mg"
same,autophosphorylation and H4 activity relative to Cdc42Hs(GTPγS),[3],approximately 8-fold lower than those observed with Cdc42Hs(GTPγS)
same,stimulation of autophosphorylation,[3],0.12 mol/mol
same,"autophosphorylation of PAK I (autoradiography, time course)",[4],a slight stimulation of autophosphorylation over the basal level was observed over a 15-min period of incubation
